Earlier results in article PMC2646799.

Biological target: histone H3 acetyl-K9 peptide (Homo sapiens) (UniProt P68431)

Kd: 1 µM
Substance: Polybromo-1 BrD3 (from UniProt Q86U86)
